Source: US20060257938A1, “Method of screening for drugs that block ligand binding to a lipid binding protein” (priority 2005, published 2006)
Where a chain is given by its changes, count along the chain named. Several values for one entry are separate records, joined by “and”; a condition that tells them apart may be missing. Equal values may be shown once.

B1: 117S, 72A (protein, listed as Rattus norvegicus)
chain: AFDGTWKVDRNENYEKFMEKMGINVVKRKLGAHDNLKLTITQEGNKFTVKESSNFRNIDVVFELGVDFAYSAADGTELTGTWTMEGNKLVGKFKRVDNGKELIAVREISGNELIQTSTYEGVEAKRIFKKE
modifications: PEPTIDE (1)...(131) wild-type rat intestinal fatty acid binding protein
B2: 117T, 72A (protein, listed as Rattus norvegicus)
chain: B1 chain with S117T
modifications: PEPTIDE (1)...(131) wild-type rat intestinal fatty acid binding protein
B3: 117V, 72A (protein, listed as Rattus norvegicus)
chain: B1 chain with S117V
modifications: PEPTIDE (1)...(131) wild-type rat intestinal fatty acid binding protein
B4: 117W, 72A (protein, listed as Rattus norvegicus)
chain: B1 chain with S117W
modifications: PEPTIDE (1)...(131) wild-type rat intestinal fatty acid binding protein
B5: 117Y, 72A (protein, listed as Rattus norvegicus)
chain: B1 chain with S117Y
modifications: PEPTIDE (1)...(131) wild-type rat intestinal fatty acid binding protein
B6: 119A, 72A (protein, listed as Rattus norvegicus)
chain: B1 chain with S117Y, Y119A
modifications: PEPTIDE (1)...(131) wild-type rat intestinal fatty acid binding protein
B7: 119C, 72A (protein, listed as Rattus norvegicus)
chain: B1 chain with S117Y, Y119C
modifications: PEPTIDE (1)...(131) wild-type rat intestinal fatty acid binding protein
B8: 119F, 72A (protein, listed as Rattus norvegicus)
chain: B1 chain with S117Y, Y119F
modifications: PEPTIDE (1)...(131) wild-type rat intestinal fatty acid binding protein
B9: 102E, 72A (protein, listed as Rattus norvegicus)
chain: B1 chain with L102E, S117Y
modifications: PEPTIDE (1)...(131) wild-type rat intestinal fatty acid binding protein
B10: 119G, 72A (protein, listed as Rattus norvegicus)
chain: B1 chain with S117Y, Y119G
modifications: PEPTIDE (1)...(131) wild-type rat intestinal fatty acid binding protein
B11: 119H, 72A (protein, listed as Rattus norvegicus)
chain: B1 chain with S117Y, Y119H
modifications: PEPTIDE (1)...(131) wild-type rat intestinal fatty acid binding protein
B12: 119I, 72A (protein, listed as Rattus norvegicus)
chain: B1 chain with S117Y, Y119I
modifications: PEPTIDE (1)...(131) wild-type rat intestinal fatty acid binding protein
B13: 119K, 72A (protein, listed as Rattus norvegicus)
chain: B1 chain with S117Y, Y119K
modifications: PEPTIDE (1)...(131) wild-type rat intestinal fatty acid binding protein
B14: 119Q, 72A (protein, listed as Rattus norvegicus)
chain: B1 chain with S117Y, Y119Q
modifications: PEPTIDE (1)...(131) wild-type rat intestinal fatty acid binding protein
B15: 119S, 72A (protein, listed as Rattus norvegicus)
chain: B1 chain with S117Y, Y119S
modifications: PEPTIDE (1)...(131) wild-type rat intestinal fatty acid binding protein
B16: 119T, 72A (protein, listed as Rattus norvegicus)
chain: B1 chain with S117Y, Y119T
modifications: PEPTIDE (1)...(131) wild-type rat intestinal fatty acid binding protein
B17: 119V, 72A (protein, listed as Rattus norvegicus)
chain: B1 chain with S117Y, Y119V
modifications: PEPTIDE (1)...(131) wild-type rat intestinal fatty acid binding protein
B18: 11C, 72A (protein, listed as Rattus norvegicus)
chain: B1 chain with N11C, S117Y
modifications: PEPTIDE (1)...(131) wild-type rat intestinal fatty acid binding protein
B19: 102F, 72A (protein, listed as Rattus norvegicus)
chain: B1 chain with L102F, S117Y
modifications: PEPTIDE (1)...(131) wild-type rat intestinal fatty acid binding protein

Assay: Probe fluorescence ratio response to palmitic acid relative to ADIFAB2
Assay type: binding
Conditions: response relative to ADIFAB2
Text: (§1) In an alternate preferred embodiment, the protein is rI-FABP that has Ala substituted for Leu at position 72 (rI-FABP-L72A) with the resulting probe named ADIFAB2. […] Other probes useful in embodiments of the invention are shown in Tables 1-6 and are also described in U.S. application Ser. No. 11/085,792, filed Mar. 21, 2005 which is incorporated herein by reference. The indicated substitutions are with reference to the ADIFAB protein of SEQ ID NO: 2.
(§2) ADIFAB2 also has an altered spectral response, making it especially useful for measurements of FFAu in blood samples (Apple et al, Clinical Proteomics, (2004) 1:41-44, U.S. patent application Ser. No. 10/670,958). The wavelengths at the maximum intensities emitted by these fluorescently-labeled I-FABP's in the absence of FFA is about 420 to 480 nm. The emission wavelengths at the maximum intensities emitted by these fluorescently-labeled I-FABP's with FFA bound are between about 495 to 580 nm. Experiments typically involve measuring the fluorescence response within both emission maxima or at wavelengths for which the effect of interfering molecules such as hemoglobin can be eliminated as described in U.S. application Ser. No. 10/670958 and PCT/US2004/030521 and the calculation of the ratio ‘R’ of the two fluorescence intensities. The baseline value for this ratio, measured in the absence of analyte, is designated R0.
(§3) The intensity ratio (“R” value) is determined as follows. The ratio is calculated using the following formula: R=Fλ1/Fλ2 wherein, Fλ1 is the measured fluorescence intensities (intensity of sample with probe present minus intensity of sample without probe present) at wavelength 1 and Fλ2 is the measured fluorescence intensities (intensity of sample with probe present minus intensity of sample without probe present) at wavelength 2. Then, for a given probe, ΔR, the difference in R value between the measurement in the presence of the test compound (agent) and in the absence of the test compound (agent), is calculated as follows: ΔR=R+agent−R0 In some embodiments, the ΔR value may then be compared to some reference, for example, an agent with a known affinity for a given probe, by ΔR/ΔRreference. Measurements of fluorescence intensities are obtained using standard techniques.

| Molecule | DR/DR PA |
| --- | --- |
| B1 | 0.55 and 0.593 |
| B2 | 0.57 and 0.567 |
| B3 | 0.49 and 0.498 |
| B4 | 0.34 and 0.339 |
| B5 | 1.14 |
| B6 | 0.30 and 0.200 |
| B7 | 0.35 and 0.355 |
| B8 | 0.69 |
| B9 | 0.30 |
| B10 | 0.46 |
| B11 | 0.32 |
| B12 | 0.69 and 0.720 |
| B13 | 0.58 |
| B14 | 0.35 |
| B15 | 0.37 and 0.373 |
| B16 | 0.79 |
| B17 | 0.57 and 0.480 |
| B18 | 0.80 |
| B19 | 0.43 and 0.369 |

Assay: Probe fluorescence ratio response to oleic acid relative to ADIFAB2
Assay type: binding
Conditions: response relative to ADIFAB2
Text: as §1, §2, §3

| Molecule | DR/DR OA |
| --- | --- |
| B1 | 1.19 and 1.258 |
| B2 | 0.81 and 0.813 |
| B3 | 0.81 and 0.774 |
| B4 | 0.39 and 0.388 |
| B5 | 1.36 |
| B6 | 0.63 and 0.490 |
| B7 | 0.97 and 0.971 |
| B8 | 0.94 |
| B9 | 0.60 |
| B10 | 0.78 |
| B11 | 0.59 |
| B12 | 1.08 and 1.050 |
| B13 | 0.87 |
| B14 | 0.60 |
| B15 | 0.71 and 0.714 |
| B16 | 1.26 |
| B17 | 1.02 and 0.780 |
| B18 | 0.70 |
| B19 | 0.64 and 0.554 |

Assay: Probe fluorescence ratio response to linolenic acid relative to ADIFAB2
Assay type: binding
Conditions: response relative to ADIFAB2
Text: as §1, §2, §3

| Molecule | DR/DR LNA |
| --- | --- |
| B1 | 1.07 and 1.133 |
| B2 | 0.77 and 0.775 |
| B3 | 0.81 and 0.767 |
| B4 | 0.46 and 0.461 |
| B5 | 1.40 |
| B6 | 0.65 and 0.520 |
| B7 | 1.00 and 1.001 |
| B8 | 0.93 |
| B9 | 0.89 |
| B10 | 0.81 |
| B11 | 0.67 |
| B12 | 1.06 and 0.940 |
| B13 | 0.78 |
| B14 | 0.62 |
| B15 | 0.73 and 0.734 |
| B16 | 1.21 |
| B17 | 1.00 and 0.710 |
| B18 | 0.64 |
| B19 | 0.53 and 0.588 |

Assay: Probe fluorescence ratio response to arachidonic acid relative to ADIFAB2
Assay type: binding
Conditions: arachidonic acid; response relative to ADIFAB2
Text: as §1, §2, §3

| Molecule | DR/DR AA |
| --- | --- |
| B1 | 1.35 and 1.467 |
| B2 | 0.79 and 0.791 |
| B3 | 0.82 and 0.805 |
| B4 | 0.55 and 0.551 |
| B5 | 1.35 |
| B6 | 0.70 and 0.540 |
| B7 | 1.06 and 1.063 |
| B8 | 0.93 |
| B9 | 0.56 |
| B10 | 0.83 |
| B11 | 0.71 |
| B12 | 1.01 and 0.920 |
| B13 | 0.78 |
| B14 | 0.60 |
| B15 | 0.78 and 0.781 |
| B16 | 1.22 |
| B17 | 0.99 and 0.750 |
| B18 | 0.52 |
| B19 | 0.95 and 0.858 |

Assay: Probe fluorescence ratio response to linoleic acid relative to ADIFAB2
Assay type: binding
Conditions: response relative to ADIFAB2
Text: as §1, §2, §3

| Molecule | DR/DR LA |
| --- | --- |
| B1 | 1.42 and 1.533 |
| B2 | 0.92 and 0.917 |
| B3 | 0.94 and 0.924 |
| B4 | 0.45 and 0.446 |
| B5 | 1.44 |
| B6 | 0.61 and 0.450 |
| B7 | 1.02 and 1.022 |
| B8 | 0.90 |
| B9 | 0.65 |
| B10 | 0.77 |
| B11 | 0.63 |
| B12 | 1.10 and 0.960 |
| B13 | 0.85 |
| B14 | 0.58 |
| B15 | 0.46 and 0.457 |
| B16 | 1.22 |
| B17 | 1.01 and 0.720 |
| B18 | 0.70 |
| B19 | 0.73 and 0.657 |
